Two variants from publication PMC5414174, “DNA replication licensing factor Cdc6 and Plk4 kinase antagonistically regulate centrosome duplication via Sas-6” (Nature Communications, 2017) can be followed below.

To fix the notation:
B1: GFP-tagged Cdc6 WT [human] / Myc-tagged Sas-6 [human] (parent)
chain 1: MPQTRSQAQATISFPKRKLSRALNKAKNSSDAKLEPTNVQTVTCSPRVKALPLSPRKRLGDDNLCNTPHLPPCSPPKQGKKENGPPHSHTLKGRRLVFDNQLTIKSPSKRELAKVHQNKILSSVRKSQEITTNSEQRCPLKKESACVRLFKQEGTCYQQAKLVLNTAVPDRLPAREREMDVIRNFLREHICGKKAGSLYLSGAPGTGKTACLSRILQDLKKELKGFKTIMLNCMSLRTAQAVFPAIAQEICQEEVSRPAGKDMMRKLEKHMTAEKGPMIVLVLDEMDQLDSKGQDVLYTLFEWPWLSNSHLVLIGIANTLDLTDRILPRLQAREKCKPQLLNFPPYTRNQIVTILQDRLNQVSRDQVLDNAAVQFCARKVSAVSGDVRKALDVCRRAIEIVESDVKSQTILKPLSECKSPSEPLIPKRVGLIHISQVISEVDGNRMTLSQEGAQDSFPLQQKILVCSLMLLIRQLKIKEVTLGKLYEAYSKVCRKQQVAAVDQSECLSLSGLLEARGILGLKRNKETRLTKVFFKIEEKEIEHALKDKALIGNILATGLP
chain 2: MSQVLFHQLVPLQVKCKDCEERRVSIRMSIELQSVSNPVHRKDLVIRLTDDTDPFFLYNLVISEEDFQSLKFQQGLLVDFLAFPQKFIDLLQQCTQEHAKEIPRFLLQLVSPAAILDNSPAFLNVVETNPFKHLTHLSLKLLPGNDVEIKKFLAGCLKCSKEEKLSLMQSLDDATKQLDFTRKTLAEKKQELDKLRNEWASHTAALTNKHSQELTNEKEKALQAQVQYQQQHEQQKKDLEILHQQNIHQLQNRLSELEAANKDLTERKYKGDSTIRELKAKLSGVEEELQRTKQEVLSLRRENSTLDVECHEKEKHVNQLQTKVAVLEQEIKDKDQLVLRTKEAFDTIQEQKVVLEENGEKNQVQLGKLEATIKSLSAELLKANEIIKKLQGDLKTLMGKLKLKNTVTIQQEKLLAEKEEKLQKEQKELQDVGQSLRIKEQEVCKLQEQLEATVKKLEESKQLLKNNEKLITWLNKELNENQLVRKQDVLGPSTTPPAHSSSNTIRSGISPNLNVVDGRLTYPTCGIGYPVSSAFAFQNTFPHSISAKNTSHPGSGTKVQFNLQFTKPNASLGDVQSGATISMPCSTDKENGENVGLESKYLKKREDSIPLRGLSQNLFSNSDHQRDGTLGALHTSSKPTALPSASSAYFPGQLPNS

Variants of B1 are the subject of this assay. Nature of the assay: co-immunoprecipitation (anti-GFP IP, western blot quantified by ImageJ). Conditions: with Myc-tagged Sas-6 [human]; HEK293 cells co-transfected; three independent experiments; means ± s.d.; read off a plot. In general terms: Immunoblotting shows a protein as a band on a membrane.
Take chain 1 S30A T527A: the ratio to parent was found to be 1.7.

Turning to chain 1 S30D T527D, the ratio to parent was 0.42.
